Data on 9 molecules can be found in article PMC8146696, “Live-Cell Analysis of Human Cytomegalovirus DNA Polymerase Holoenzyme Assembly by Resonance Energy Transfer Methods” (Microorganisms, 2021).

First the molecules themselves.
B1: HCMV DNA polymerase catalytic subunit pUL54, C-terminal domain UL54(1125–1242) (domain or fragment)
chain: VSRSDAIDGTDDDADGGGVEESNRRGGEPAKKRARKPPSAVCNYEVAEDPSYVREHGVPIHADKYFEQVLKAVTNVLSPVFPGGETARKDKFLHMVLPRRLHLEPAFLPYSVKAHECC
notes: also called CFP-UL54(1125–1242); RLuc-UL54; source: HEK293T, transiently transfected, in cells; not shown: CFP (FRET) or RLuc (BRET), N-terminal, kept
B2: FLAG-tagged ppUL44 (natural protein)
chain: MDRKTRLSEPPTLALRLKPYKTAIQQLRSVIRALKENTTVTFLPTPSLILQTVRSHCVSKITFNSSCLYITDKSFQPKTINNSTPLLGNFMYLTSSKDLTKFYVQDISDLSAKISMCAPDFNMEFSSACVHGQDIVRESENSAVHVDLDFGVVADLLKWIGPHTRVKRNVKKAPCPTGTVQILVHAGPPAIKFILTNGSELEFTANNRVSFHGVKNMRINVQLKNFYQTLLNCAVTKLPCTLRIVTEHDTLLYVASRNGLFAVENFLTEEPFQRGDPFDKNYVGNSGKSRGGGGGGGSLSSLANAGGLHDDGPGLDNDLMNEPMGLGGLGGGGGGGGKKHDRGGGGGSGTRKMSSGGGGGDHDHGLSSKEKYEQHKITSYLTSKGGSGGGGGGGGGGLDRNSGNYFNDAKEESDSEDSVTFEFVPNTKKQKCG
notes: also called FLAG-UL44; pDESTnFLAG-UL44; source: HEK293T or HEK293A-derived cell lines, transiently transfected, in cells
B3: HCMV DNA polymerase processivity factor ppUL44, UL44(2–433), wild type (natural protein)
chain: DRKTRLSEPPTLALRLKPYKTAIQQLRSVIRALKENTTVTFLPTPSLILQTVRSHCVSKITFNSSCLYITDKSFQPKTINNSTPLLGNFMYLTSSKDLTKFYVQDISDLSAKISMCAPDFNMEFSSACVHGQDIVRESENSAVHVDLDFGVVADLLKWIGPHTRVKRNVKKAPCPTGTVQILVHAGPPAIKFILTNGSELEFTANNRVSFHGVKNMRINVQLKNFYQTLLNCAVTKLPCTLRIVTEHDTLLYVASRNGLFAVENFLTEEPFQRGDPFDKNYVGNSGKSRGGGGGGGSLSSLANAGGLHDDGPGLDNDLMNEPMGLGGLGGGGGGGGKKHDRGGGGGSGTRKMSSGGGGGDHDHGLSSKEKYEQHKITSYLTSKGGSGGGGGGGGGGLDRNSGNYFNDAKEESDSEDSVTFEFVPNTKKQKCG
notes: also called YFP-UL44; CFP-UL44; source: HEK293T, transiently transfected, in cells; YFP-UL44 also stably expressed in HEK293A (lentiviral transduction, puromycin); RLuc-UL44 also stably expressed in HEK293A clone 1B2 (G418); not shown: YFP (acceptor copy) or CFP (FRET donor copy) or RLuc (BRET donor copy), N-terminal, kept
B4: ppUL44 UL44(2–433) I135A (natural protein)
chain: B3 chain with I134A
notes: source: HEK293T, transiently transfected, in cells; not shown: YFP (acceptor copy) or RLuc (BRET donor copy), N-terminal, kept
B5: ppUL44 UL44(2–433) L86A/L87A (natural protein)
chain: B3 chain with L85A, L86A
notes: source: HEK293T, transiently transfected, in cells; not shown: YFP (acceptor copy) or CFP (FRET donor copy) or RLuc (BRET donor copy), N-terminal, kept

Numbering of substitutions follows the chain as printed. In names and notes the source's numbering stands.

The target in data set [1] is ppUL44 UL44(2–433) Δloop (R165G/K167N/K168G) (human cytomegalovirus (HCMV)) (UniProt P16790). The data set is described as follows: FRET or BRET; BRET saturation in living HEK293T cells; fixed RLuc donor plasmid, increasing YFP acceptor plasmid (0-500 ng); one-site hyperbola of BRET ratio against YFPnet/RLuc gives B50 (relative affinity).
The target in data set [2] is ppUL44 UL44(2–433) ΔNLS (K428V/K429A/K431) (human cytomegalovirus (HCMV)) (UniProt P16790). Described as above.
Data set [3] has as its target pUL54 C-terminal 20 aa C-terminal 20 aa (Human cytomegalovirus) (UniProt P08546). The settings on record: cited from earlier work.
In data set [4] the target is UL44Δ290 1-290 (Human cytomegalovirus) (UniProt P16790). Briefly: gel filtration. The settings on record: cited from earlier work.
For data set [5], the target named is B5. Briefly: FRET or BRET; BRET saturation in living HEK293T cells; fixed RLuc donor plasmid, increasing YFP acceptor plasmid (0-500 ng); one-site hyperbola of BRET ratio against YFPnet/RLuc gives B50 (relative affinity). Conditions: partners not purified.
The data set “ppUL44 UL44(2–433) I135A” concerns the target B4. Described as above. The settings on record: partners not purified.
For data set [6], the target named is B3. Described as above. Conditions: partners not purified.
Data set [7] concerns the target B1. Briefly: FRET or BRET; BRET inhibition, system 1: HEK293T transiently expressing RLuc donor and YFP-UL44 acceptor at about 50% of BRETmax, with increasing amounts of pDESTnFLAG-UL44 or pDESTnFLAG-UL42. The settings on record: partners not purified.
Data set [8] deals with the molecule itself. Briefly: FRET or BRET; BRET in monoclonal HEK293A lines (from clone 1B2) stably expressing both YFP-UL44 and RLuc-UL44.
Data set [9] deals with the molecule itself. The data set is described as follows: FRET or BRET; BRET saturation in living HEK293T cells; fixed RLuc donor plasmid, increasing YFP acceptor plasmid (0-500 ng); one-site hyperbola of BRET ratio against YFPnet/RLuc gives B50 (relative affinity).
Data set [10] concerns the molecule itself. Briefly: FRET or BRET; BRET at one donor/acceptor ratio in living HEK293T cells; RLuc fusion donor with or without YFP-UL44 acceptor, both transient; 48 h post transfection, cells in PBS, coelenterazine 5 uM.

Regarding “ppUL44 UL44(2–433) Δloop (R165G/K167N/K168G) (from UniProt P16790 2-433) (natural protein)”, the B50 in data set [1] is 12.6.

Regarding “ppUL44 UL44(2–433) ΔNLS (K428V/K429A/K431) (from UniProt P16790 2-433) (natural protein)”, in data set [2], the B50 came out at 11.2.

With UL44Δ290 1-290 (from UniProt P16790), the Kd in [3] was 700 nM; in data set [4], 250 nM.

Take “HCMV DNA polymerase catalytic subunit pUL54, C-terminal domain UL54(1125–1242) (from UniProt P08546 1125-1242) (domain or fragment)”: the B50 in data set [1] was 34.4; in data set [2], 15.1.

On to B1, for which the B50 in data set [5] was 11.5; with ppUL44 UL44(2–433) I135A it was 81.2; in data set [6], 20.

With B2, the “percent inhibition of the RLuc-UL54/YFP-UL44 BRET ratio” value in [7] is about 40%.

For the molecule B3, the BRET ratio in data set [8] was determined as 0.17; in [10], 0.36 ± 0.1. Further, in [9], the B50 was 19.

For the molecule B4, the B50 in [9] is 25.5.

For the molecule B5, the B50 in [9] is 73.7.
